The text below walks through data of patent US10081667B2, “Composition and method for therapeutic agent delivery during pregnancy” (University of Mississippi Medical Center, priority 2013, dated 2018).

For data set [1] the following is noted: rat, in vivo.
Another data set relates to NF-κB. Nature of the data set: In vitro NF-κB activation assay: nuclear localization of NF-κB in TNFα-stimulated HUVECs. It counts as cell-based, human. Particulars: 20 μM pretreatment 24 h, TNFα 1 h. The protocol: FIG. 14 includes images and a bar graph illustrating inhibition of NF-κB activation with an ELP-delivered p50 peptide. FIG. 14A. Localization of NF-κB in HUVEC cells before and after TNFα stimulation. HUVECs were treated with SynB1-ELP control or SynB1-ELP-p50 (20 μM) for 24 h. Cells were then stimulated for 1 h with TNFα, and NF-κB localization was determined by immunostaining for the p65 subunit (green) and for nuclei with DAPI (blue). FIG. 14B. The nuclear cytoplasmic ratio of NF-κB staining was determined under each treatment condition. Data represent the mean of 30-60 cells per treatment and are averaged over three experiments.
This investigation has developed an ELP-fused peptide inhibitor of activated NF-κB. NF-κB activation upon extracellular signaling is mediated by phosphorylation and release of the natural inhibitor I-κB from the NF-κB p50/p65 heterodimer. I-κB release exposes a nuclear localization sequence (NLS) on the p50 subunit of NF-κB, and once exposed, this NLS mediates nuclear import of NF-κB. Once inside the nucleus, NF-κB binds to response elements on its target genes and regulates gene expression. […] Stimulation of cultured HUVECs with TNF-α leads to rapid activation of the NF-κB pathway, and this can be detected by monitoring nuclear localization of NF-κB (FIG. 14A, left panel).

The test system of the next data set is endothelin-1. The data set can be described thus: Endothelin-1 release by HUVECs, ELISA. The data set is classed as cell-based, human. The protocol: FIG. 15 includes a graph illustrating the inhibition of endothelin release by SynB1-ELP-p50. HUVECs growing in 24-well plates were treated with 50 μM SynB1-ELP or SynB1-ELP-p50 overnight, then 50 or 100 ng/mL […]. Cells were incubated overnight, and culture media was collected and frozen.
TNFα stimulation also leads to the secretion of the vasoactive peptide endothelin-1 by HUVECs. This endothelin release contributes to the hypertension associated with the pro-inflammatory environment in preeclampsia.
In general terms: In an ELISA, binding on a coated surface is turned into a signal by an enzyme label.

The test system of data set [2] is human umbilical vein endothelial cells (HUVECs). The data set can be described thus: HUVEC proliferation, MTS cell proliferation assay. The data set is classed as cell-based. To be noted: 72 h exposure. The protocol: FIG. 9 is a bar graph showing ELP-VEGF stimulation of HUVEC proliferation. HUVEC cell proliferation was determined after 72 h exposure to ELP, VEGF, or ELP-VEGF at the indicated concentrations using the MTS cell proliferation assay.
Proliferation of human umbilical vein endothelial cells (HUVECs) is stimulated when the cell are exposed to VEGF.
Background: Formazan colour is commonly taken as a measure of viable cells.

For data set [3], the system named is rat model of preeclampsia. Nature of the data set: Blood pressure in the reduced uterine perfusion (RUPP) rat model of preeclampsia. The data set is classed as in vivo, rats. To be noted: 1 mg/kg/day IP minipump GD14 to GD19, measured GD19. As for the experimental part:
FIG. 13 is a bar graph showing effect of ELP-VEGF on blood pressure in the reduced uterine perfusion model. A study was conducted in pregnant rats subjected to surgical reduction of uterine blood flow (RUPP) on gestational day 14 (GD14). ELP-VEGF or saline control was administered by continuous infusion via IP minipump from GD14 to GD19 at a dose of 1 mg/kg/day. Data represent the mean arterial pressure as assessed by indwelling carotid catheters on GD19. Individual animal data are indicated by the points.
Whether ELP-VEGF was effective for lowering blood pressure in a rat model of preeclampsia is texted next. Pregnant rats at gestational day 14 (GD14) were subjected to surgery to reduce ale blood flow to the placentas. It has previously been shown that this model, achieved by partially restricting the ovarian arteries and the dorsal aorta, results in a preeclampsia-like syndrome in the rat. The effects mirror human preeclampsia in that the rats develop hypertension, proteinuria, reduced renal function, fetal growth restriction, and some fetal loss. […] The hypertension associated with this model can be seen in FIG. 13, where the mean arterial pressure increased from about 105 mmHg in normal pregnant rats on GD19 to over 120 mmHg in the preeclampsia model as measured by a pressure transducer inserted into a carotid arterial catheter.

Data set [4] is described as follows: ELP-VEGF pharmacokinetics and biodistribution in mice after bolus IV. The data set is classed as in vivo, C57/B16 mice. The protocol:
FIG. 12 includes graphs showing ELP-VEGF pharmacokinetics and biodistribution. FIG. 12A. Fluorescently labeled free VEGF or ELP-VEGF were administered by IV injection to C57/B16 mice. Plasma levels were determined by direct fluorescence quantitation and fit to a two-compartment pharmacokinetic model. FIG. 12B. […] FIG. 12D.
In addition to examining the ELP-VEGF activity in vitro, the pharmacokinetics (PK) and biodistribution of ELP-VEGF in comparison to free VEGF121 is also determined. Both free VEGF121 and ELP-VEGF were fluorescently labeled, and their PK and biodistribution were determined in mice after bolus intravenous administration. […] This is consistent with other reports of approximately a 30 minute half-life for recombinant VEGF in humans. ELP-VEGF cleared more slowly than free VEGF121 (FIG. 12A). […] Four hours after the infusion, the biodistribution was determined by ex vivo whole organ fluorescence imaging.

B1: SynB1-ELP-p50: SynB1 peptide fused to N-terminus of ELP (SEQ ID NO: 4), p50 peptide at the C-terminus; SEQ ID NO: 15 (protein)
chain: MRGGRLSYSRRRFSTSTGRGCGPGVGVPGAGVPGGGVPGAGVPGGGVPGAGVPGGGVPGAGVPGGGVPGAGVPGGGVPGAGVPGGGVPGAGVPGGGVPGAGVPGVGVPGAGVPGGGVPGAGVPGGGVPGAGVPGGGVPGAGVPGGGVPGAGVPGGGVPGAGVPGGGVPGAGVPGGGVPGAGVPGVGVPGAGVPGGGVPGAGVPGGGVPGAGVPGGGVPGAGVPGGGVPGAGVPGGGVPGAGVPGGGVPGAGVPGGGVPGAGVPGVGVPGAGVPGGGVPGAGVPGGGVPGAGVPGGGVPGAGVPGGGVPGAGVPGGGVPGAGVPGGGVPGAGVPGGGVPGAGVPGVGVPGAGVPGGGVPGAGVPGGGVPGAGVPGGGVPGAGVPGGGVPGAGVPGGGVPGAGVPGGGVPGAGVPGGGVPGAGVPGVGVPGAGVPGGGVPGAGVPGGGVPGAGVPGGGVPGAGVPGGGVPGAGVPGGGVPGAGVPGGGVPGAGVPGGGVPGAGVPGVGVPGAGVPGGGVPGAGVPGGGVPGAGVPGGGVPGAGVPGGGVPGAGVPGGGVPGAGVPGGGVPGAGVPGGGVPGAGVPGVGVPGAGVPGGGVPGAGVPGGGVPGAGVPGGGVPGAGVPGGGVPGAGVPGGGVPGAGVPGGGVPGAGVPGGGVPGAGVPGVGVPGAGVPGGGVPGAGVPGGGVPGAGVPGGGVPGAGVPGGGVPGAGVPGGGVPGAGVPGGGVPGAGVPGGGVPGAGVPGVGVPGAGVPGGGVPGAGVPGGGVPGAGVPGGGVPGAGVPGGGVPGAGVPGGGVPGAGVPGGGVPGAGVPGGGVPGAGVPGWPGSGGVQRKRQKLMP
modifications: synthetic SynB1-ELP-p50 sequence
In the case of B1, in data set [1], the “entry into fetal circulation / pups” value is “effectively prevents the peptide from entering the fetal circulation” and the “terminal half-life (in words)” value is “greater than two hours”. Moreover, the “nuclear translocation of NF-κB after TNF-α stimulation” value in the data set with NF-κB is “completely blocks this nuclear translocation of NF-κB”. The “endothelin release from unstimulated HUVECs” value with endothelin-1 (50 μM) is given as “decreases the endothelin release from unstimulated HUVECs”. Moreover, the “endothelin release from TNFα-stimulated HUVECs” value in the data set on endothelin-1 (50 μM pre-treatment overnight) is listed as “the endothelin release is completely blocked”.

B2: ELP-VEGF: ELP sequence (SEQ ID NO: 4) fused to a C-terminal VEGF121 sequence, SEQ ID NO: 14; 73 kDa protein (protein)
chain: MSKGPGVGVPGAGVPGGGVPGAGVPGGGVPGAGVPGGGVPGAGVPGGGVPGAGVPGGGVPGAGVPGGGVPGAGVPGGGVPGAGVPGVGVPGAGVPGGGVPGAGVPGGGVPGAGVPGGGVPGAGVPGGGVPGAGVPGGGVPGAGVPGGGVPGAGVPGGGVPGAGVPGVGVPGAGVPGGGVPGAGVPGGGVPGAGVPGGGVPGAGVPGGGVPGAGVPGGGVPGAGVPGGGVPGAGVPGGGVPGAGVPGVGVPGAGVPGGGVPGAGVPGGGVPGAGVPGGGVPGAGVPGGGVPGAGVPGGGVPGAGVPGGGVPGAGVPGGGVPGAGVPGVGVPGAGVPGGGVPGAGVPGGGVPGAGVPGGGVPGAGVPGGGVPGAGVPGGGVPGAGVPGGGVPGAGVPGGGVPGAGVPGVGVPGAGVPGGGVPGAGVPGGGVPGAGVPGGGVPGAGVPGGGVPGAGVPGGGVPGAGVPGGGVPGAGVPGGGVPGAGVPGVGVPGAGVPGGGVPGAGVPGGGVPGAGVPGGGVPGAGVPGGGVPGAGVPGGGVPGAGVPGGGVPGAGVPGGGVPGAGVPGVGVPGAGVPGGGVPGAGVPGGGVPGAGVPGGGVPGAGVPGGGVPGAGVPGGGVPGAGVPGGGVPGAGVPGGGVPGAGVPGVGVPGAGVPGGGVPGAGVPGGGVPGAGVPGGGVPGAGVPGGGVPGAGVPGGGVPGAGVPGGGVPGAGVPGGGVPGAGVPGVGVPGAGVPGGGVPGAGVPGGGVPGAGVPGGGVPGAGVPGGGVPGAGVPGGGVPGAGVPGGGVPGAGVPGGGVPGAGVPGWPGSGAPMAEGGGQNHHEVVKFMDVYQRSYCHPIETLVDIFQEYPDEIEYIFKPSCVPLMRCGGCCNDEGLECVPTEESNITMQIMRIKPHQGQHIGEMSFLQHNKCECRPKKDRARQEKCDKPRR
modifications: synthetic ELP-VEGF sequences
notes: 73 kDa protein
Take B2: the “stimulation of HUVEC proliferation” value in data set [2] was “stimulated HUVEC proliferation with equal potency”. Also, in data set [3], the mean arterial pressure entry is listed as “effectively lowered the blood pressure of the preeclampsia-induced rats to near normal levels”. The “fluorescence in the urine at the end of the experiment” value in data set [4] is reported as “less fluorescence detectable in the urine”. In data set [4] (IV), the “plasma clearance rate relative to free VEGF121” value is reported as “about half the rate of free VEGF121”. Moreover, in data set [4] (four hours after the infusion), the “kidney deposition relative to free VEGF121” value is “significantly lower than for free VEGF121”; the “organ accumulation, ex vivo whole organ fluorescence imaging” value was “accumulated more highly in the spleen and liver than did free VEGF121”.
